Residue numbers refer to the chain shown, from its start.
B1: antibody F4P5 (antibody, V domains shown)
VH: EVQLVESGGGVVQPGRSLRLSCAASGFTFSNFGMHWVRQPPGKGLEWVAVISYDGSDKFYADSVKGRFTISRDNFKNTLYVQMNSLRAEDTAVYYCAKDRVRTKYYYDHSGPFDYWGRGTLVTVSS
VL: SYELTQPPSVSVAPGQTARIACGGNNIGSKSVHWYQQRPGQAPVLVVYDDDDRPSGIPERFSGSNSGNTATLTISRVEAGDEADYFCQVWMTNSDRPVFGGGTKLTVL
B2: antibody D11P7 (antibody, V domains shown)
VH: EVQLVESGGGLVQPGGSLRLSCAASGFTFRSYTMDWVRQAPGKGLEWVSCISGSSNHKYYADSVRGRFTISRDNAKNSLFLQMNSLRAEDSAVYYCAREDDILTPLYGMDVWGPGTTVTVSS
VL: QSALTQPASVSGSPGQSITISCTGTSSDVGAYNYVSWYRLRPGKDPHLIIYDVSHRPAGVSNRFSGSKSGNTASLTISGLQAEDEDEYYCCSYAHRGTPLFGGGTKLTVL
B3: antibody C11P7 (antibody, V domains shown)
VH: EVQLVESGGGLVQPGGSLKLSCAASGFSLSNSEVHWVRQASGKGLEWIGRVRSRANRHATGYTESVNGRFTVSRDDSKNTASLQLESLKIEDTAVYYCTGVRGVISRYFAMDVWGQGTTVTVSS
VL: B2 VL
B4: antibody F2P7 (antibody, V domains shown)
VH: EVQLVQSGGGLVQPGGSLKLSCAASGFSSSGSEIHWVRQASGRGLEWIGRVRSTANRHAPGYTESVRGTFTVSRDESKNTASLELKSLKIEDTAVYYCTGVRGVISRYFAMDVWGQGTTVTVSS
VL: QSALTQPASVSGSPGQSITISCTGTNSDLGSYNYVSWYRLHPGKDPHLIIYDVTHRPSGVSSRFSGSKSGKTASLTISGLQSEDEAEYFCCSYASVGSPIFGGGTKVTVL
B5: antibody B10P1 (antibody, V domains shown)
VH: EVQLSESGGGLVQPGGSLRLSCAASGFTFSSYAMSWVRQAPGKGLEWVSSLTGSGGSTYYRDSVKGRFTIFRDNSKKTLYMQMNSLRAEDTAVYYCAKEGAYSYDFWYFDLWGRGTLVTVSS
VL: EIVLTQSPGTLSLSPGERATLSCRASQTVSGNYLAWYQQKPGQSPSLLIYGASSRATGIPDRFTGSGSGTDFTLTISRLEPADFAVYYCQQYGRPLTFGGGTKVDIK
B6: antibody G9P2 (antibody, V domains shown)
VH: B5 VH with S5L
VL: B5 VL with I49T, D105E
B7: antibody G7P7 (antibody, V domains shown)
VH: QVQLQESGPGLVRPSQTLSLTCTVSGGSMTSGSYYWSWIRQPAEKGLEWIGRIYTSGRTDYNPSLKSRVAMSIDTSKNQFSLRLTSVTAADTAVYYCARWGDSSAYYYVGDPWGRGTPVTVSS
VL: DIQMTQSPSSLSASIGDRVTITCRASQNINTYLYWYQQKPGKAPQLLIYAASNLQTGAPSRFSGSGSGTDFTLTISSLQPADFATYYCQQSFSLPHTFGQGTKLEIK
B8: antibody C6P7 (antibody, V domains shown)
VH: B7 VH
VL: B7 VL with L104V
B9: antibody G8P6 (antibody, V domains shown)
VH: B7 VH with P118T
VL: B7 VL
B10: antibody D3P7 (antibody, V domains shown)
VH: QVQLVQSGSELKKPGASVRVSCKASAYTFTNSAINWVRQAPGQGLEWTGWINTNTGNPAYAQGFRGRFVFSLDTSVSEAYLQITNLKAEDTATYYCAVPYNFGGDHNSFHFFGMDVWGQGTTVTVSS
VL: QSALTQPASVSGSPGQSITISCTGSSSDVGTYNFVSWYQQQPAKAPKVMIYEGTKRPSGISDRFSGSKSGNTASLTISGLQAEDEADYYCSSYAGGNAFVFGTGTRVSVL
B11: antibody F3P7 (antibody, V domains shown)
VH: QVQLVQSGAEVKKPGASVKVSCKVSGYTFTSYSMHWLRQAPGQRLEWMGWINAGNGDTKYSQKFQGRITISRDTSARTTYMELSSLRSEDTAVFYCARSNSPTVTYNYYYYAMDVWGQGTTVTVSS
VL: EIVLTQSPGTLSLSPGERATLSCRASQSVRSSYLAWYQQQAGQAPRLLIYDASSRATGIPDRFSGSGSGTDFSLTISRLDPEDFAVYYCQQYGNSPLTFGGGTKVEIK
B12: antibody B7P6 (antibody, V domains shown)
VH: EVQLVQSGAELKKPGESLKISCKGSGFTFTNYWIAWVRQMPGKGLEWMGIIYPDDSDARYSPSFEGQVTISVDKSISTAYLQWSSLKASDTAIYYCARGGFCSGSVCYNPAWFDLWGQGTLVTVSS
VL: DIQMTQSPSSLSASVGDRVTITCRASQTINTYLNWYLQKPGKAPKLLISDASSLETGVPSRFSGSGSGTDFTLTISSLQPDDFATYYCQQSYSTPLTFGGGTKVEIK
B13: antibody E6P5 (antibody, V domains shown)
VH: EVQLVESGGGLVQPGRSLRLSCSASGFTFDDHAMHWVRQAPGKGLEWVAGINWNSASIVYADSVKGRFTISRDNVKNSLYLQMNSLRADDTALYYCAKDFGLWFGESRGIDAWGRGTTVTVSS
VL: DIVMTQSPLSLPVTPGEPASISCRPSQSLLHSNGYNYLNWYLQKPGRSPQLLIYLGSNRASGVPDRFSGSGSGTDFTLKISRVEAEDVGIYYCMQALQTPITFGQGTRLEIK
B14: antibody E4P2 (antibody, V domains shown)
VH: QVQLQESGPGLVKPSQTLSLTCTVSGGSISSGGYYWSWIRQHPGKGLEWIGYMYYSGSTNYNPSLKSRVTISVDTSKNQFSLKLTSVTAADTAVYYCARDRRDYGDYYYFGMDVWGQGTTVTVSS
VL: QSVLTQPPSVSGAPGQRVTISCTGSSSNIGAGYDVHWYQQLPGTAPKLLIYANSNRPSGVPDRFSGSKSGTSASLAITGLQAEDEANYYCQSYDSSLSVYVVFGGGTKLTVL
B15: antibody D7P6 (antibody, V domains shown)
VH: EVQLLESGGGLVQPGGSLRLSCAASGFPFSSYAMSWVRQAPGKGLEWVSGITGSASGTYYADSVKGRFTISRDNSKNTLYLRMNSLRAEDTAVYYCAKEGAYSYDYWYFDLWGRGTLVTVSS
VL: EIVLTQSPGTLSLSPGERATLSCRASQSVSGSYLAWYQQKPGQTPRLLIYGASSRATGIPDRFSGSGSGTDFTLTINRLDPEDFGVYYCQQYGSLVTFGGGSKVEIK
B16: antibody F3P6 (antibody, V domains shown)
VH: QVQLVQSGAEVKKPGASVKVSCKASGYTFTTHIIHWVRQAPGQRLEWMGWINAGNGNTHYSEKFQGRVTLTRDTSASTAYMELSSLRSEDTAIYYCAREDQWLGRSPLEYWGQGTLVTVSS
VL: EIVLTQSPGTLSLSPGERATLSCRASQSVSSSYLAWYQHKPGQAPRLLIYGASSRATGIPDRFSGSGSGTDFTLTISRLEPEDFAVYYCQQYGNSYPWTFGQGTKVEIK
B17: antibody G5P6 (antibody, V domains shown)
VH: B16 VH with H59K
VL: B16 VL with I76V

biological target: T1, VP1 pentamer of BKV genotype II (recombinant) (BK virus genotype II, UniProt P14996 30-300); assay: ELISA, coated VP1 pentamer
T1 construct: also called GII; VP1 geno II pentamer; not shown: N-terminal His-tag of pESPRIT002; C-terminal biotin acceptor peptide (BAP) of pESPRIT002

Row | Binder | EC50 [mg/L] | binding result
1 | B1 | 10 | –
2 | B2 | – | no binding (tested: starting at 50 µg/mL)
3 | B3 | 6 | –
4 | B4 | 10 | –
5 | B5 | 2.8 | –
6 | B6 | 1.5 | –
7 | B7 | 0.06 | –
8 | B8 | 0.55 | –
9 | B9 | 0.08 | –
10 | B10 | 0.15 | –
11 | B11 | 1.5 | –
12 | B12 | 0.04 | –
13 | B13 | 0.6 | –
14 | B14 | 0.025 | –
15 | B15 | 0.25 | –
16 | B16 | 0.15 | –
17 | B17 | 0.28 | –

biological target: T2, VP1 pentamer of BKV genotype IV (recombinant) (BK virus genotype IV, UniProt P14996 30-300); assay: ELISA, coated VP1 pentamer
T2 construct: also called GIV; VP1 BKV subtype IV; not shown: N-terminal His-tag of pESPRIT002; C-terminal biotin acceptor peptide (BAP) of pESPRIT002

Row | Binder | EC50 [mg/L] | binding result
18 | B1 | 12 | –
19 | B2 | – | no binding (tested: starting at 50 µg/mL)
20 | B3 | 4 | –
21 | B4 | 4 | –
22 | B5 | 15 | –
23 | B6 | 10 | –
24 | B7 | 0.04 | –
25 | B8 | 0.08 | –
26 | B9 | 0.06 | –
27 | B10 | 0.3 | –
28 | B11 | 1.8 | –
29 | B12 | 0.1 | –
30 | B13 | 3 | –
31 | B14 | 0.18 | –
32 | B15 | 70 | –
33 | B16 | 1.25 | –
34 | B17 | 0.7 | –

biological target: VP1 capsid protein on BKV pseudovirions of genotype IVc2 (A-66H; AB369093) (BK virus genotype IVc2 (A-66H)); assay: cell-based or functional assay

Row | Binder | Neutralization PSV IC50 [mg/L]
35 | B1 | 15.9
36 | B2 | > 50
37 | B3 | > 50
38 | B4 | > 50
39 | B5 | > 50
40 | B6 | > 50
41 | B7 | 0.0036
42 | B8 | 0.0053
43 | B9 | 0.0582
44 | B10 | > 50
45 | B11 | 0.614
46 | B12 | 0.121
47 | B13 | 1.19
48 | B14 | > 50
49 | B15 | > 50
50 | B16 | 0.262
51 | B17 | 0.0889

biological target: VP1 capsid protein on BKV pseudovirions of genotype Ia (BK-D; JF894228) (BK virus genotype Ia (BK-D)); assay: cell-based or functional assay

Row | Binder | Neutralization PSV IC50 [mg/L]
52 | B1 | 0.0008
53 | B2 | 0.275
54 | B3 | > 50
55 | B4 | > 50
56 | B5 | 1.27
57 | B6 | 0.683
58 | B7 | 12.5
59 | B8 | 0.104
60 | B9 | 6.44
61 | B10 | > 50
62 | B11 | > 50
63 | B12 | 0.0479
64 | B13 | 0.0008
65 | B14 | 0.0399
66 | B15 | 0.096
67 | B16 | 0.363
68 | B17 | 0.299

biological target: VP1 capsid protein on BKV pseudovirions of genotype II (GBR-12; AB263920) (BK virus genotype II (GBR-12)); assay: cell-based or functional assay

Row | Binder | Neutralization PSV IC50 [mg/L]
69 | B1 | 0.471
70 | B2 | 0.0901
71 | B3 | > 50
72 | B4 | > 50
73 | B5 | 0.107
74 | B6 | 0.0336
75 | B7 | 0.0007
76 | B8 | 0.0002
77 | B9 | 0.0058
78 | B10 | > 50
79 | B11 | 0.0457
80 | B12 | 0.0044
81 | B13 | 0.232
82 | B14 | 0.979
83 | B15 | 0.0103
84 | B16 | 0.0062
85 | B17 | 0.0082

Reference: patent EP4659811A1 (Université de Strasbourg, dated 2025)
